Source: the supplement of paper PMC12783771
± gives the standard deviation of the averaged measurements.

B1: library; numbered along this chain (parent)
chain: MNIQIGELAKRTACPVVTIRFYEQEGLLPPPGRSRGNFRLYGEEHVERLQFIRHCRSLDMPLSDVRTLLSYRKRPDQDCGEVNMLLDEHIRQVESRIGALLELKHHLVELREACSGARPAQSCGILQGLSDCVCDTRGTTAHPSD

Experiments:
[1] = variants of: B1; assay: sfGFP reporter fluorescence (15 h) (µM FITC); higher = higher leak; conditions: library round: Round 0; ligand: none
In short: (§1)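 PCR-made linear PbrR templates (Echo-normalized to 5 nM) were expressed in BL21 Star (DE3) extract (PANOx-SP) with pPbrR-sfGFP reporter plasmid and 30 μg/mL GamS. Reactions were 1 μL, Echo-assembled, with 1 µM lead chloride, 30 µM zinc acetate or no metal, incubated 15 hr at 30 °C. Endpoint sfGFP fluorescence (485/528 nm, Synergy Neo2) was converted to µM FITC via standard curves in 50 mM sodium borate pH 8.5. Up to three biological replicates.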

[2] = variants of: B1; assay: sfGFP reporter fluorescence (15 h) (µM FITC); higher = stronger transcriptional activation; conditions: library round: Round 0
In short: as §1

| Variant | sfGFP reporter fluorescence [1] | sfGFP reporter fluorescence ([2]; ligand: 1 µM Pb) | sfGFP reporter fluorescence ([2]; ligand: 30 µM Zn) |
| --- | --- | --- | --- |
| MNIQIGELAKRTACPVVTIRFYEQEGLLPPPGRSRGNFRLYGEEHVERLQFIRHCRSCDMPLSDVRTLLSYRKRPDQDCGEVNMLLDEHIRQVESRIGALLELKHHLVELREACSGARPAQSCGILQGLSDCVCDTRGTTAHPSD [L58C] | 0.05846 ± 0.00026 | 0.05772 ± 0.00026 | 0.06121 ± 0.00052 |
| MNIQIGELAKRTACPVVTIRFYEQEGLLPPPGRSRGNFRLYGEEHVERLQFIRHCRSADMPLSDVRTLLSYRKRPDQDCGEVNMLLDEHIRQVESRIGALLELKHHLVELREACSGARPAQSCGILQGLSDCVCDTRGTTAHPSD [L58A] | 0.0601 ± 0.001 | 0.05681 ± 0.00052 | 0.0563 ± 0.0049 |
| MNIQIGELAKRTACPVVTIRFYEQEGLLPPPGRSRGNFRLYGEEHVERLQFIRHCRSEDMPLSDVRTLLSYRKRPDQDCGEVNMLLDEHIRQVESRIGALLELKHHLVELREACSGARPAQSCGILQGLSDCVCDTRGTTAHPSD [L58E] | 0.0619 ± 0.001 | 0.0625 ± 0.0013 | 0.064 ± 0.0018 |
| MNIQIGELAKRTACPVVTIRFYEQEGLLPPPGRSRGNFRLYGEEHVERLQFIRHCRSFDMPLSDVRTLLSYRKRPDQDCGEVNMLLDEHIRQVESRIGALLELKHHLVELREACSGARPAQSCGILQGLSDCVCDTRGTTAHPSD [L58F] | 0.0592 ± 0.0018 | 0.0731 ± 0.0013 | 0.261 ± 0.027 |
| MNIQIGELAKRTACPVVTIRFYEQEGLLPPPGRSRGNFRLYGEEHVERLQFIRHCRSDDMPLSDVRTLLSYRKRPDQDCGEVNMLLDEHIRQVESRIGALLELKHHLVELREACSGARPAQSCGILQGLSDCVCDTRGTTAHPSD [L58D] | 0.0599 ± 0.0023 | 0.0623 | 0.0608 ± 0.0015 |
| MNIQIGELAKRTACPVVTIRFYEQEGLLPPPGRSRGNFRLYGEEHVERLQFIRHCRSIDMPLSDVRTLLSYRKRPDQDCGEVNMLLDEHIRQVESRIGALLELKHHLVELREACSGARPAQSCGILQGLSDCVCDTRGTTAHPSD [L58I] | 0.05443 ± 0.00026 | 0.0546 ± 0.001 | 0.05864 ± 0.00052 |
| MNIQIGELAKRTACPVVTIRFYEQEGLLPPPGRSRGNFRLYGEEHVERLQFIRHCRSGDMPLSDVRTLLSYRKRPDQDCGEVNMLLDEHIRQVESRIGALLELKHHLVELREACSGARPAQSCGILQGLSDCVCDTRGTTAHPSD [L58G] | 0.0548 ± 0.00078 | 0.0548 ± 0.0013 | 0.052 ± 0.001 |
| MNIQIGELAKRTACPVVTIRFYEQEGLLPPPGRSRGNFRLYGEEHVERLQFIRHCRSHDMPLSDVRTLLSYRKRPDQDCGEVNMLLDEHIRQVESRIGALLELKHHLVELREACSGARPAQSCGILQGLSDCVCDTRGTTAHPSD [L58H] | 0.05901 ± 0.00052 | 0.0594 ± 0.0021 | 0.0656 ± 0.0036 |
| MNIQIGELAKRTACPVVTIRFYEQEGLLPPPGRSRGNFRLYGEEHVERLQFIRHCASLDMPLSDVRTLLSYRKRPDQDCGEVNMLLDEHIRQVESRIGALLELKHHLVELREACSGARPAQSCGILQGLSDCVCDTRGTTAHPSD [R56A] | 0.0616 | 0.0616 ± 0.0026 | 0.1308 ± 0.00052 |
| MNIQIGELAKRTACPVVTIRFYEQEGLLPPPGRSRGNFRLYGEEHVERLQFIRHVRSLDMPLSDVRTLLSYRKRPDQDCGEVNMLLDEHIRQVESRIGALLELKHHLVELREACSGARPAQSCGILQGLSDCVCDTRGTTAHPSD [C55V] | 0.0629 ± 0.0029 | 0.0773 ± 0.0047 | 0.273 ± 0.0029 |
| MNIQIGELAKRTACPVVTIRFYEQEGLLPPPGRSRGNFRLYGEEHVERLQFIRHWRSLDMPLSDVRTLLSYRKRPDQDCGEVNMLLDEHIRQVESRIGALLELKHHLVELREACSGARPAQSCGILQGLSDCVCDTRGTTAHPSD [C55W] | 0.0731 ± 0.0029 | 0.0935 ± 0.0015 | 0.136 ± 0.0083 |
| MNIQIGELAKRTACPVVTIRFYEQEGLLPPPGRSRGNFRLYGEEHVERLQFIRHTRSLDMPLSDVRTLLSYRKRPDQDCGEVNMLLDEHIRQVESRIGALLELKHHLVELREACSGARPAQSCGILQGLSDCVCDTRGTTAHPSD [C55T] | 0.0577 ± 0.00078 | 0.0594 ± 0.0042 | 0.129 ± 0.0018 |
| MNIQIGELAKRTACPVVTIRFYEQEGLLPPPGRSRGNFRLYGEEHVERLQFIRHYRSLDMPLSDVRTLLSYRKRPDQDCGEVNMLLDEHIRQVESRIGALLELKHHLVELREACSGARPAQSCGILQGLSDCVCDTRGTTAHPSD [C55Y] | 0.0601 ± 0.0021 | 0.0623 ± 0.001 | 0.06011 ± 0.00052 |
| MNIQIGELAKRTACPVVTIRFYEQEGLLPPPGRSRGNFRLYGEEHVERLQFIRHCRALDMPLSDVRTLLSYRKRPDQDCGEVNMLLDEHIRQVESRIGALLELKHHLVELREACSGARPAQSCGILQGLSDCVCDTRGTTAHPSD [S57A] | 0.059 ± 0.0015 | 0.0575 ± 0.001 | 0.184 ± 0.011 |
